{"source": "paper PMC6166728", "about": "“Structure–function analyses of the bacterial zinc metalloprotease effector protein GtgA uncover key residues required for deactivating NF-κB” (The Journal of Biological Chemistry, 2018)", "molecular_target": "T1, GtgA(20–228)^E183Q (Salmonella Typhimurium strain ATCC …, UniProt A0A0F6AZI6 20-228, E183Q)", "T1 construct": "residues left by TEV cleavage of the His6–GST tag, before the first residue of GtgA; Cloned in pETM30 (TEV-cleavable N-terminal His6 and GST); source: E. coli BL21 PC2, purified (GSH–Sepharose, TEV cleavage, Superdex 75 SEC); not shown: His6, N-terminal, cleaved; GST, N-terminal, cleaved", "T1 sequence": "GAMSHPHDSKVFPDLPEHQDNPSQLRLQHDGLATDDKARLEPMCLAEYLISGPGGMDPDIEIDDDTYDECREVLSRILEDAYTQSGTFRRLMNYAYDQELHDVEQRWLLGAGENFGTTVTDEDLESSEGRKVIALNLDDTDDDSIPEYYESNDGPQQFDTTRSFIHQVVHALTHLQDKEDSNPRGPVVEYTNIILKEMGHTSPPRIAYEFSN", "assay": "crystal structure; GtgA(20–228)^E183Q–p65(20–188) complex, 175 μM of each protein mixed immediately prior to crystallization; sitting drop, 20 °C, 0.1 M Tris pH 8.3, 0.5 M LiCl, 32.5% (w/v) PEG 6000; Zn2+-free; single heterodimer in the asymmetric unit", "details": "both partners purified"}
{"binder": "p65(20–188) (domain or fragment, murine, single alanine left by ULP1 cleavage of the His6–SUMO tag, before the first residue of p65; NF-κB subunit p65 (RelA), murine, amplified from RAW264.7 cDNA, N-terminal domain residues 20–188; Cloned in pE-SUMO (LifeSensors); also called p65 NTD; p65 N-terminal domain; source: E. coli BL21 PC2, purified (Ni-NTA, ULP1 cleavage, Superdex 75 SEC); not shown: His6, N-terminal, cleaved; SUMO, …) AYVEIIEQPKQRGMRFRYKCEGRSAGSIPGERSTDTTKTHPTIKINGYTGPGTVRISLVTKDPPHRPHPHELVGKDCRDGYYEADLCPDRSIHSFQNLGIQCVKKRDLEQAISQRIQTNNNPFHVPIEEQRGDYDLNAVRLCFQVTVRDPAGRPLLLTPVLSHPIFDNRA", "values": [{"measurement": "binding result", "result": "binds"}]}
